Reference: publication PMC10400941 (Proceedings of the National Academy of Sciences of the …, 2023)

How the values were obtained:
RpnAL = target: T1, RpnAL (E. coli, UniProt P31667 1-292); assay: SEC-MALS
T1 sequence (looked up): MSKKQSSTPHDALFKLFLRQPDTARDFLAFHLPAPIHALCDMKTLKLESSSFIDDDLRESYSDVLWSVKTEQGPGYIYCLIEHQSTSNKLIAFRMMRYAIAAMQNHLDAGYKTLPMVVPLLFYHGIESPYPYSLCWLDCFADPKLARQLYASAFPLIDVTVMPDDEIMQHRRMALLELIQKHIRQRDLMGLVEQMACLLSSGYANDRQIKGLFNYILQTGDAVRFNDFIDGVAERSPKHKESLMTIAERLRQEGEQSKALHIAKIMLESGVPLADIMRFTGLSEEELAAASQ

SEC-MALS = target: the molecule itself; assay: SEC-MALS

MTIAERLRQEGEQSKALHIAKIMLESGVPLADIMRFTGLSEEELAAASQ (domain or fragment, E. coli, UniProt P31667 244-292, looked up) [RpnAS]
stoichiometry N (RpnAL): 1 RpnAS per RpnAL (2:2)
stoichiometry N (SEC-MALS): 2
